Source: US20250057927A1, “ALPHA-1 A[…] FROM YEAST FOR USE IN THE TREATMENT OF VIRAL INFECTIONS” (priority 2021, published 2025)

B1: rec α1AT Fraction 52 (protein)
chain: EDPQGDAAQKTDTSHHDQDHPTFNKITPNLAEFAFSLYRQLAHQSNSTNIFFSPVSIATAFAMLSLGTKADTHDEILEGLNFNLTEIPEAQIHEGFQELLRTLNQPDSQLQLTTGNGLFLSEGLKLVDKFLEDVKKLYHSEAFTVNFGDTEEAKKQINDYVEKGTQGKIVDLVKELDRDTVFALVNYIFFKGKWERPFEVKDATEEEDFHVDQVTTVKVPMMKRLGMFNIQHCKKLSSWVLLMKYLGNATAIFFLPDEGKLQHLENELTHDIITKFLENEDRRSASLHLPKLSITGTYDLKSVLGQLGITKVFSNGADLSGVTEEAPLKLSKAVHKAVLTIDEKGTEAAGAMFLEAIPMSIPPEVKFNKPFVFLMIEQNTKSPLFMGKVVNPTQK
B2: rhAAT (protein)
chain: EDPQGDAAQKTDTSHHDQDHPTFNKITPNLAEFAFSLYRQLAHQSNSTNIFFSPVSIATAFAMLSLGTKADTHDEILEGLNFNLTEIPEAQIHEGFQELLRTLNQPDSQLQLTTGNGLFLSEGLKLVDKFLEDVKKLYHSEAFTVNFGDTEEAKKQINDYVEKGTQGKIVDLVKELDRDTVFALVNYIFFKGKWERPFEVKDATEEEDFHVDQVTTVKVPMMKRLGMFNIQHCKKLSSWVLLMKYLGNATAIFFLPDEGKLQHLENELTHDIITKFLENEDRRSASLHLPKLSITGTYDLKSVLGQLGITKVFSNGADLSGVTEEAPLKLSKAVHKAVLTIDEKGTEAAGAMFLEAIPMSIPPEVKFNKPFVFLMIEQNTKSPLFMGKVVNPTQK
B3: rec α1AT Fraction 53 (protein)
chain: EDPQGDAAQKTDTSHHDQDHPTFNKITPNLAEFAFSLYRQLAHQSNSTNIFFSPVSIATAFAMLSLGTKADTHDEILEGLNFNLTEIPEAQIHEGFQELLRTLNQPDSQLQLTTGNGLFLSEGLKLVDKFLEDVKKLYHSEAFTVNFGDTEEAKKQINDYVEKGTQGKIVDLVKELDRDTVFALVNYIFFKGKWERPFEVKDATEEEDFHVDQVTTVKVPMMKRLGMFNIQHCKKLSSWVLLMKYLGNATAIFFLPDEGKLQHLENELTHDIITKFLENEDRRSASLHLPKLSITGTYDLKSVLGQLGITKVFSNGADLSGVTEEAPLKLSKAVHKAVLTIDEKGTEAAGAMFLEAIPMSIPPEVKFNKPFVFLMIEQNTKSPLFMGKVVNPTQK

Tested on: lentiviral pseudoparticles harbouring the SARS-CoV-2 spike protein of Wuhan Hu-1 isolate
Assay type: cell-based

Molecule | IC50 of inhibiting pseudoparticle entry into Caco2 cells [µg/mL] | estimated IC90 [µg/mL] | pseudoparticle entry | inhibition of pseudoparticle entry compared to Prolastin | inhibition of the entry of SARS-CoV-2 | inhibition of pseudoparticle entry | activity in the pseudoparticle assay compared to Prolastin
Prolastin | 3160 | 20000 | about 10% |  |  |  | 
B1 |  |  |  | greater inhibition | inhibit the entry of SARS-CoV-2 similar to Prolastin |  | 
B2 |  | 8000 |  |  |  | complete inhibition | 
B3 |  |  |  | greater inhibition | inhibit the entry of SARS-CoV-2 similar to Prolastin |  | greater activity
